{"source": "patent US20110135647", "test_system": "T1, pp1-18 peptide (cell-permeable peptide, RRRRRRRRRRR-G-MEGISNFKTPSKLSEKKK)", "T1 sequence": "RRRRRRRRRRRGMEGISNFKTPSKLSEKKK", "data": [{"substance": "CDK1-cyclin B1 recombinant protein complex (New England Biolabs)", "values": [{"measurement": "phosphorylation of recombinant PBK/TOPK by CDK1-cyclin B1 (in vitro kinase assay with peptide added)", "value": "the phosphorylation of recombinant PBK/TOPK protein by CDK1-cyclin B1 recombinant proteins was diminished in dose-dependent manner by addition of the pp 1-18 peptide"}]}]}
